Experiment [1] deals with T1, PTP HSCF (Mus musculus, UniProt Q61152).
T1 construct: the PST (and C-terminal homolog) of PTP HSCF (amino acids 304-453); made in house; host or cells: E. coli DH5-alpha
T1 sequence (Q61152 304-453): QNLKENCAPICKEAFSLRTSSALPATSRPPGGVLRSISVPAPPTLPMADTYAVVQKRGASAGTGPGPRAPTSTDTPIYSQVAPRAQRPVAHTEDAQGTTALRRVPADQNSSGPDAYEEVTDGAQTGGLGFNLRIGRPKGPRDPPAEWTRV
Description: In vitro GST pull-down binding of PST PIP forms to PTP HSCF. Conditions: in vitro. As to the method: The binding was carried out according to the method of Wong and Johnson (Wong et al., J. Biol. Chem. 271(35):20981-20984 (1996)). Briefly, 1 μg of plasmid with either the PSTPIP protein or PTP HSCF under the control of the Sp6 promoter was in vitro transcribed/translated using the Promega™ TnT Rabbit Reticulocyte™ system. Samples were diluted in 50 mM HEPES, pH 7.2, 1% triton X 100, 10% glycerol, 100 mM NaCl, 5 mM EDTA and 2 μg/ml each of leupeptin, pepstatin, aprotinin, and PMSF. […] This was reacted for 1 hour at 4° C. and then the resin washed 6 times in HEPES/Triton binding buffer before SDS gel electrophoresis. The peptides were synthesized on an automated Milligen 9050 Peptide Synthesizer using standard solid phase chemistry with FMOC protected amino acids on a p-alkoxybenzyl alcohol resin. Dried peptides were re-suspended in the HEPES/Triton Binding buffer at a concentration of 10 mg/ml. Peptide inhibition was performed by adding the peptide first to the in vitro translation product and then the GST-fusion followed by the GSH-Sepharose. The binding/washing steps were as previously described. The peptides synthesized and the PTPs they were derived from were: • PXXP-HSCF: 432[…]451 (PTP HSCF) (SEQ ID NO:20), • PXXP-PEP: 782GFGNRFSKPKGPRNPPSAW800 (PTP PEP) (SEQ ID NO:21), • PXXP-PEST: 761[…]780 (PTP PEST) SEQ ID NO:22), • PXXP-CONTROL: 334[…]353 (PTP HSCF) (SEQ ID NO:23).
In vitro binding analyses between various PTP HSCF and PST PIP constructs were performed as previously described (Spencer et al, (1997), supra). Briefly, plasmids were transcribed and translated in vitro using the TnT Rabbit Reticulocyte Lysate System (Promega). Samples were diluted in 50 mM HEPES, pH 7.2, 1% triton X-100, 10% glycerol, 100 mM NaCl, and 2 μg/ml each of leupeptin, pepstatin, aprotinin and PMSF (lysis buffer). Samples were than reacted with GST fusion proteins at various concentrations, and the bound proteins were centrifuged using glutathione-sepharose beads and analyzed on SDS polyacrylamide gels. C-terminally-derived peptide inhibition studies were performed by incubating the GST fusion protein binding reactions in the presence of 10 μg/ml of the indicated peptides. Peptides were produced by FMOC-protected amino acids as previously described (Spencer et al, (1997), supra). In vivo interactions between various forms of PTP HSCF and PST PIP were also performed as previously described (Spencer et al, (1997), supra). Briefly, COS cells were transfected with various constructs, and after 48 hours, lysates were prepared and immunoprecipitated with antibodies to either the FLAG epitope contained at the C-terminus of PST PIP or an HA epitope contained at the N-terminus of PTP HSCF. The resultant blots were probed with anti-FLAG to detect PST PIP, anti-HA to detect PTP HSCF or anti-phosphotyrosine to detect levels of this modified amino acid in each protein.

Experiment [2] has as its system CHO cells. Nature of the experiment: Confocal microscopy of PST PIP forms expressed in CHO cells. The conditions noted are these: transfected CHO cells. Type of experiment: cell-based, Chinese hamster. On the procedure: Confocal microscopy was performed as previously described (Spencer et al, (1997), supra). Briefly, CHO cells in chamber slides were transfected using Lipofectamine and the indicated plasmids. 48 hours later, cells were fixed in formaldehyde and stained with an anti-FLAG epitope specific antibody (Kodak) and Fluorescein-Phalloidin (Molecular Probes). Anti-Flag stained cells were washed and stained with Cy3-conjugated sheep anti-mouse IgG. Stained cells were observed using Molecular Dynamics Confocal Microscope™ (2001) and analyzed with ImageSpace™ software (Molecular Dynamics).

Experiment [3] addresses T2, PSTPIP (Mus musculus, UniProt P97814).
T2 construct: containing the full-length cDNA for PSTPIP (amino acids 2-415) was subcloned into pGEX4T-2; made in house; host or cells: E. coli DH5-alpha
T2 sequence (P97814 2-415): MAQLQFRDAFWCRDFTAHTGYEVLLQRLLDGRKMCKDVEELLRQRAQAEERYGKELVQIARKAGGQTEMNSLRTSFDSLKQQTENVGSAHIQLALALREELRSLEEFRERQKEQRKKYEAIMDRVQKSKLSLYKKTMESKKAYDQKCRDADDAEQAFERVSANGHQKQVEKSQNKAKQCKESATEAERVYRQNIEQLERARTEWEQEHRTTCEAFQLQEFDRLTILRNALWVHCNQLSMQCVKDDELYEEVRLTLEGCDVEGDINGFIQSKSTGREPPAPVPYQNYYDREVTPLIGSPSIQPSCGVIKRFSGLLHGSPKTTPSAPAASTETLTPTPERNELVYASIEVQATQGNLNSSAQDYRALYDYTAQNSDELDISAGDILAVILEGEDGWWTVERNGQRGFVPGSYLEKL
Nature of the experiment: In vitro GST pull-down binding of PTP HSCF forms to GST PSTPIP. On the set-up: species or system murine. The conditions noted are these: 1 or 10 μg/ml GST PST PIP. As to the method: The binding was carried out according to the method of Wong and Johnson (Wong et al., J. Biol. Chem. 271(35):20981-20984 (1996)). Briefly, 1 μg of plasmid with either the PSTPIP protein or PTP HSCF under the control of the Sp6 promoter was in vitro transcribed/translated using the Promega™ TnT Rabbit Reticulocyte™ system. Samples were diluted in 50 mM HEPES, pH 7.2, 1% triton X 100, 10% glycerol, 100 mM NaCl, 5 mM EDTA and 2 μg/ml each of leupeptin, pepstatin, aprotinin, and PMSF. […] This was reacted for 1 hour at 4° C. and then the resin washed 6 times in HEPES/Triton binding buffer before SDS gel electrophoresis. The peptides were synthesized on an automated Milligen 9050 Peptide Synthesizer using standard solid phase chemistry with FMOC protected amino acids on a p-alkoxybenzyl alcohol resin. Dried peptides were re-suspended in the HEPES/Triton Binding buffer at a concentration of 10 mg/ml. Peptide inhibition was performed by adding the peptide first to the in vitro translation product and then the GST-fusion followed by the GSH-Sepharose. […]
In vitro binding analyses between various PTP HSCF and PST PIP constructs were performed as previously described (Spencer et al, (1997), supra). […] Samples were than reacted with GST fusion proteins at various concentrations, and the bound proteins were centrifuged using glutathione-sepharose beads and analyzed on SDS polyacrylamide gels. […]

Experiment [4] concerns the target T3, full-length PSTPIP tagged with the FLAG epitope at the C-terminus (murine, UniProt P97814 1-415).
T3 construct: In vitro transcribed/translated in rabbit reticulocyte lysate, or expressed in COS cells
T3 sequence: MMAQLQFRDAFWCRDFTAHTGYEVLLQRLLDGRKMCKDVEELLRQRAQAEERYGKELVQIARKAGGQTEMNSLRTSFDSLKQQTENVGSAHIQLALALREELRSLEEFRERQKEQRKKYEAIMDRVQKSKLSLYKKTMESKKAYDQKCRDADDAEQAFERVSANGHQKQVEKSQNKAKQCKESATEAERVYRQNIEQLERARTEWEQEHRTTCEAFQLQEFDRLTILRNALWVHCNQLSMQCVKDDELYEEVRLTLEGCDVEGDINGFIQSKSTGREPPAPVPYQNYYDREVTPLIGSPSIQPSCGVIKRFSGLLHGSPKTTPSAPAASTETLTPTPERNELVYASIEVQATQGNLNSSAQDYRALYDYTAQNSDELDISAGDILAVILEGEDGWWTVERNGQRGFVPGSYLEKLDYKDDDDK
Nature of the experiment: peptide competition of the GST-PST-rich+CTH PTP HSCF pulldown of in vitro translated PSTPIP. As to the method:
This was reacted for 1 hour at 4° C. and then the resin washed 6 times in HEPES/Triton binding buffer before SDS gel electrophoresis. The peptides were synthesized on an automated Milligen 9050 Peptide Synthesizer using standard solid phase chemistry with FMOC protected amino acids on a p-alkoxybenzyl alcohol resin. Dried peptides were re-suspended in the HEPES/Triton Binding buffer at a concentration of 10 mg/ml. Peptide inhibition was performed by adding the peptide first to the in vitro translation product and then the GST-fusion followed by the GSH-Sepharose. The binding/washing steps were as previously described. The peptides synthesized and the PTPs they were derived from were:
The region of PTP HSCF which interacts with PSTPIP was identified by producing deletion mutants of the enzyme missing either the 20 amino acid C-terminal domain which is highly conserved in all of the PEST PTPs (Yang et al. (1993) supra, Matthews et al., (1992) supra, Cheng et al., (1996) supra, Huang et al., (1996) supra, Aoki et al., (1996) Dosil et al., (1996) supra and Kim et al., (1996) supra) or both this domain as well as the longer proline, serine and threonine rich region C-terminal to the catalytic domain (FIG. 4A). FIG. 4B-C reveal that deletion of the C-terminal 20 amino acid homology domain of PTP HSCF completely abolished the interaction between PTP HSCF and PSTPIP. Because this region is conserved in all PEST PTPs, it is possible that both PTP PEST (Yang et al., (1993) supra) as well as PTP PEP (Matthews et al., (1992) supra) also interact with PSTPIP. In order to examine this possibility, as well as to examine if the 20 amino acid C-terminal region is sufficient for this interaction, 20 residue long peptides derived from the homologous C-terminal domain of three PEST PTPs were used to compete with the interaction between PTP HSCF and PSTPIP (FIG. 4D). In this form of the assay, a GST fusion derived from the PST-rich and C-terminal homology regions of the phosphatase was used to precipitate in vitro translated PSTPIP in the presence of varying amounts of peptides. […]

B1: delta 25: PST PIP missing the N-terminal 25 amino acids (protein)
chain: LQRLLDGRKMCKDVEELLRQRAQAEERYGKELVQIARKAGGQTEMNSLRTSFDSLKQQTENVGSAHIQLALALREELRSLEEFRERQKEQRKKYEAIMDRVQKSKLSLYKKTMESKKAYDQKCRDADDAEQAFERVSANGHQKQVEKSQNKAKQCKESATEAERVYRQNIEQLERARTEWEQEHRTTCEAFQLQEFDRLTILRNALWVHCNQLSMQCVKDDELYEEVRLTLEGCDVEGDINGFIQSKSTGREPPAPVPYQNYYDREVTPLIGSPSIQPSCGVIKRFSGLLHGSPKTTPSAPAASTETLTPTPERNELVYASIEVQATQGNLNSSAQDYRALYDYTAQNSDELDISAGDILAVILEGEDGWWTVERNGQRGFVPGSYLEKLDYKDDDDK
As to B1, the “binding of in vitro translated PST PIP forms to GST fusion of C-terminal 149 amino acids of PTP HSCF” value in experiment [1] is “capable of interacting”. The “cellular localization of PST PIP forms (assay for correct folding)” value in experiment [2] is reported as “predominantly co-localized with the cortical actin cytoskeleton”.

B2: deletion of the C-terminal 20 amino acid homology domain of PTP HSCF: PTP HSCF deletion mutant missing the C-terminal homology domain (protein, UniProt Q99952 1-440, looked up, fragment)
chain: MSRSLDSARSFLERLEARGGREGAVLAGEFSDIQACSAAWKADGVCSTVAGSRPENVRKNRYKDVLPYDQTRVILSLLQEEGHSDYINGNFIRGVDGSLAYIATQGPLPHTLLDFWRLVWEFGVKVILMACREIENGRKRCERYWAQEQEPLQTGLFCITLIKEKWLNEDIMLRTLKVTFQKESRSVYQLQYMSWPDRGVPSSPDHMLAMVEEARRLQGSGPEPLCVHCSAGCGRTGVLCTVDYVRQLLLTQMIPPDFSLFDVVLKMRKQRPAAVQTEEQYRFLYHTVAQMFCSTLQNASPHYQNIKENCAPLYDDALFLRTPQALLAIPRPPGGVLRSISVPGSPGHAMADTYAVVQKRGAPAGAGSGTQTGTGTGTGARSAEEAPLYSKVTPRAQRPGAHAEDARGTLPGRVPADQSPAGSGAYEDVAGGAQTGGLGF
Take B2: the “binding of in vitro translated PTP HSCF forms to GST PSTPIP” value in experiment [3] is “completely abolished the interaction”.

B3: PXXP-PEST peptide (PTP PEST 761-780) (peptide)
peptide: GFGNRCGKPKGPRDPPSEWT
notes: Synthetic, FMOC chemistry; also called proline rich peptide derived from the C-terminal homology region of PTP PEST
In the case of B3, the “lowest peptide concentration that effectively blocks the interaction” value in experiment [4] was around 800 nM.

B4: PXXP-PEP peptide (PTP PEP 782-800) (peptide)
peptide: GFGNRFSKPKGPRNPPSAW
notes: Synthetic, FMOC chemistry; also called proline rich peptide derived from the C-terminal homology region of PTP PEP
Regarding B4, in experiment [4], the “lowest peptide concentration that effectively blocks the interaction” value is around 800 nM.

B5: PXXP-HSCF peptide (PTP HSCF 432-451) (peptide)
peptide: GFNLRIGRPKGPRDPPAEWT
notes: Synthetic, FMOC chemistry; also called proline rich peptide derived from the C-terminal homology region of PTP HSCF
Take B5: the “lowest peptide concentration that effectively blocks the interaction” value in experiment [4] was around 800 nM.

Source of the values: US6887705B1, “Tyrosine phosphorylated cleavage furrow-associated proteins (PSTPIPs)” (Genentech, Inc., priority 1997, dated 2005).
